Source: patent US20240167070A1 (NANYANG TECHNOLOGICAL UNIVERSITY, published 2024)
Starred links: 1 amine or outer side, 2 acyl side, 3 side chain; linkers in the order of their positions; H or OH if unused. Non-standard residues stand in square brackets, D forms with d. Primed or numbered codes have the meaning given here. No end group written: not given here. Asn(OH)″ = N^γ-hydroxy-L-asparagine (L-aspartic acid β-hydroxamate), O=C(C[C@H](N[*:1])C(=O)[*:2])NO; Asn(OH) = N-gamma-hydroxy-L-asparagine, O=C(C[C@H](N[*:1])C(=O)[*:2])NO[*:3]

T1: matrix metalloprotease 2 (MMP2) (UniProt P08253 110-660, limits assumed)
T1 construct: also called matrix metalloproteinases 2
T1 sequence (looked up): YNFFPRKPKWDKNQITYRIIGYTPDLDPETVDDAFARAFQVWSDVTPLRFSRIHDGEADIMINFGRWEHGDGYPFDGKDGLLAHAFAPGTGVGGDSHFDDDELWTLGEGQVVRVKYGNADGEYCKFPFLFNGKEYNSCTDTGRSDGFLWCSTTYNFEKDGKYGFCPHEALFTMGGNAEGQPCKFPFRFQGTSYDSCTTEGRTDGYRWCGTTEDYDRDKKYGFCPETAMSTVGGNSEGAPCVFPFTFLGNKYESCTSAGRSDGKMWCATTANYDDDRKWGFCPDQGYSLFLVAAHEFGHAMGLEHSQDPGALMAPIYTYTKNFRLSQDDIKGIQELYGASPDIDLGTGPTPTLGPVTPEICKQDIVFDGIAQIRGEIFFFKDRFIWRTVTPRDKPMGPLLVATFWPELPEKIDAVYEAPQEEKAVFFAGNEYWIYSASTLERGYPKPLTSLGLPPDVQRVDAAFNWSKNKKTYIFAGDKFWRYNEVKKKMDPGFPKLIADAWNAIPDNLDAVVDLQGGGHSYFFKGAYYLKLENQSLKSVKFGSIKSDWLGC

B1: β-amyloid precursor protein-derived inhibitory peptide (APP-IP) 8, ISYGNDALMP (peptide)
peptide: ISYGNDALMP-NH2
notes: Linear 10-mer; also called peptide 8; linear APP-IP 8
B2: cyclo[…(OH)ALMPSGQYM] (peptide)
peptide: cyclo(ATRSGISYGQ[Asn(OH)″]ALMPSGQYM)
SMILES: CC[C@H](C)[C@@H]1NC(=O)CNC(=O)[C@H](CO)NC(=O)[C@H](CCCNC(=N)N)NC(=O)[C@H]([C@@H](C)O)NC(=O)[C@H](C)NC(=O)[C@H](CCSC)NC(=O)[C@H](Cc2ccc(O)cc2)NC(=O)[C@H](CCC(N)=O)NC(=O)CNC(=O)[C@H](CO)NC(=O)[C@@H]2CCCN2C(=O)[C@H](CCSC)NC(=O)[C@H](CC(C)C)NC(=O)[C@H](C)NC(=O)[C@H](CC(=O)NO)NC(=O)[C@H](CCC(N)=O)NC(=O)CNC(=O)[C@H](Cc2ccc(O)cc2)NC(=O)[C@H](CO)NC1=O
notes: also called peptide 15
B3: cyclo[SGISYGQN(OH)ALMPSG] (peptide)
peptide: cyclo(SGISYGQ[Asn(OH)″]ALMPSG)
SMILES: CC[C@H](C)[C@@H]1NC(=O)CNC(=O)[C@H](CO)NC(=O)CNC(=O)[C@H](CO)NC(=O)[C@@H]2CCCN2C(=O)[C@H](CCSC)NC(=O)[C@H](CC(C)C)NC(=O)[C@H](C)NC(=O)[C@H](CC(=O)NO)NC(=O)[C@H](CCC(N)=O)NC(=O)CNC(=O)[C@H](Cc2ccc(O)cc2)NC(=O)[C@H](CO)NC1=O
notes: also called peptide 12
B4: Asn(OH)-RTD1 17, cyclo[SYCN(OH)CLCRRGVCRCICTI] (peptide)
peptide: cyclo(SYC[Asn(OH)]CLCRRGVCRCICTI)
modifications: disulfide (positions not given here); not fully specified (bridges); printed as cyclo[SYCN(OH)CLCRRGVCRCICTI]; also: oxidatively folded disulfides, pairing not given here
notes: also called peptide 17; grafted peptide 17
B5: Asp-RTD-1 18, cyclo[SYCDCLCRRGVCRCICTI] (peptide)
peptide: cyclo(SYCDCLCRRGVCRCICTI)
modifications: disulfide (positions not given here); also: oxidatively folded, disulfide pairing not given here
notes: Obtained by NaIO4 oxidation of Asn(OH)-RTD-1 17; also called peptide 18
B6: Asn-RTD-1 19, cyclo[SYCNCLCRRGVCRCICTI] (peptide)
peptide: cyclo(SYCNCLCRRGVCRCICTI)
modifications: disulfide (positions not given here); also: oxidatively folded disulfides, pairing not given here
notes: also called peptide 19
B7: cyclic MCoTI-II, [GGVCPKILKKCRRDSDCPGACICRGNGYCGSGSD] (peptide)
peptide: cyclo(GGVCPKILKKCRRDSDCPGACICRGNGYCGSGSD)
modifications: not fully specified (bridges); also: three disulfide bonds, pairing not given here
notes: also called MCoTI-II 20; cyclo-MCoTI-II
B8: cyclo[…(OH)ALMPSGYM] (peptide)
peptide: cyclo(ATSGISYGQ[Asn(OH)]ALMPSGYM)
SMILES: CC[C@H](C)[C@@H]1NC(=O)CNC(=O)[C@H](CO)NC(=O)[C@H]([C@@H](C)O)NC(=O)[C@H](C)NC(=O)[C@H](CCSC)NC(=O)[C@H](Cc2ccc(O)cc2)NC(=O)CNC(=O)[C@H](CO)NC(=O)[C@@H]2CCCN2C(=O)[C@H](CCSC)NC(=O)[C@H](CC(C)C)NC(=O)[C@H](C)NC(=O)[C@H](CC(=O)NO)NC(=O)[C@H](CCC(N)=O)NC(=O)CNC(=O)[C@H](Cc2ccc(O)cc2)NC(=O)[C@H](CO)NC1=O
notes: also called peptide 14
B9: Asn(OH)-APP-IP peptide 9, ISYGNN(OH)ALMP (peptide)
peptide: ISYGN[Asn(OH)″]ALMP-NH2
modifications: N-terminus assumed
SMILES: CC[C@H](C)[C@H](N)C(=O)N[C@@H](CO)C(=O)N[C@@H](Cc1ccc(O)cc1)C(=O)NCC(=O)N[C@@H](CC(N)=O)C(=O)N[C@@H](CC(=O)NO)C(=O)N[C@@H](C)C(=O)N[C@@H](CC(C)C)C(=O)N[C@@H](CCSC)C(=O)N1CCC[C@H]1C(N)=O
notes: Linear 10-mer; also called linear Asn(OH)-APP-IP peptide 9
B10: cyclo[ISYGQN(OH)ALMP] (peptide)
peptide: cyclo(ISYGQ[Asn(OH)″]ALMP)
SMILES: CC[C@H](C)[C@@H]1NC(=O)[C@@H]2CCCN2C(=O)[C@H](CCSC)NC(=O)[C@H](CC(C)C)NC(=O)[C@H](C)NC(=O)[C@H](CC(=O)NO)NC(=O)[C@H](CCC(N)=O)NC(=O)CNC(=O)[C@H](Cc2ccc(O)cc2)NC(=O)[C@H](CO)NC1=O
notes: also called peptide 10
B11: rhesus theta defensin-1 (RTD-1) 16, cyclo[GFCRCLCRRGVCRCICTR] (peptide)
peptide: cyclo(GFCRCLCRRGVCRCICTR)
modifications: disulfide (positions not given here); not fully specified; printed as cyclo[GFCRCLCRRGVCRCICTR]
notes: also called peptide 16; native RTD-1
B12: cyclo[…(OH)ALMPSGA] (peptide)
peptide: cyclo(GSGISYGQ[Asn(OH)]ALMPSGA)
SMILES: CC[C@H](C)[C@@H]1NC(=O)CNC(=O)[C@H](CO)NC(=O)CNC(=O)[C@H](C)NC(=O)CNC(=O)[C@H](CO)NC(=O)[C@@H]2CCCN2C(=O)[C@H](CCSC)NC(=O)[C@H](CC(C)C)NC(=O)[C@H](C)NC(=O)[C@H](CC(=O)NO)NC(=O)[C@H](CCC(N)=O)NC(=O)CNC(=O)[C@H](Cc2ccc(O)cc2)NC(=O)[C@H](CO)NC1=O
notes: also called peptide 13
B13: cyclo[SISYGQN(OH)ALMPG] (peptide)
peptide: cyclo(SISYGQ[Asn(OH)″]ALMPG)
SMILES: CC[C@H](C)[C@@H]1NC(=O)[C@H](CO)NC(=O)CNC(=O)[C@@H]2CCCN2C(=O)[C@H](CCSC)NC(=O)[C@H](CC(C)C)NC(=O)[C@H](C)NC(=O)[C@H](CC(=O)NO)NC(=O)[C@H](CCC(N)=O)NC(=O)CNC(=O)[C@H](Cc2ccc(O)cc2)NC(=O)[C@H](CO)NC1=O

Assays:
[1] = target: T1, matrix metalloprotease 2 (MMP2); assay: MMP2 FRET-substrate inhibition assay; Ki = IC50/(1+[S]0/Km)
Experimental: (§1) The inhibitory activity of the peptides was determined by measuring the MMPs' protease activity towards a FRET substrate. […] MMP2 was pre-incubated with the peptide inhibitors for 10 min before adding the substrate.

[2] = target: T1, matrix metalloprotease 2 (MMP2); assay: cell-based or functional assay
[3] = target: T1, matrix metalloprotease 2 (MMP2); assay: MMP2 and MMP9 FRET-substrate inhibition assays
Experimental: as §1

MMP9 = MMP9 (UniProt P14780 107-707, limits assumed); assay: MMP9 FRET-substrate inhibition assay; Ki = IC50/(1+[S]0/Km)
MMP9, sequence (P14780 107-707 limits assumed): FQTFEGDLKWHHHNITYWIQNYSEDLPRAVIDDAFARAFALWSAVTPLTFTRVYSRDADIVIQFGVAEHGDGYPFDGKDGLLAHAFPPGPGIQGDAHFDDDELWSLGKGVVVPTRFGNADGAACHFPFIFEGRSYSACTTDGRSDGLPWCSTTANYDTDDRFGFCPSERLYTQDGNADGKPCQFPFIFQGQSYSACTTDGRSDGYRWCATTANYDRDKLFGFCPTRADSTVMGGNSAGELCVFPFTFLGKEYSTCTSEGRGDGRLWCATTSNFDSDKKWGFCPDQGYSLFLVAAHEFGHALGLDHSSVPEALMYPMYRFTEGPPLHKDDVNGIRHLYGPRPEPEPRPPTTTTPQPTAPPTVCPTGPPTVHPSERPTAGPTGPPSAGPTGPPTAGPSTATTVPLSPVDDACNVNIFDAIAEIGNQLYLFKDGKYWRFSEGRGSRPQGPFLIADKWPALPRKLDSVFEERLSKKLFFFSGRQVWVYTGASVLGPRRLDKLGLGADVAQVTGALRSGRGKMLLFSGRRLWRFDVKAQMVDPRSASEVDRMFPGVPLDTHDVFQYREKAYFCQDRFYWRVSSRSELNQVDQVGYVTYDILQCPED
Experimental: as §1

[4] = target: T1, matrix metalloprotease 2 (MMP2); assay: MMP2 FRET-substrate inhibition assay
Experimental: as §1

trypsin [5] = assay: trypsin FRET-substrate inhibition assay; Ki = IC50/(1+[S]0/Km)
trypsin, sequence (P00760 24-246): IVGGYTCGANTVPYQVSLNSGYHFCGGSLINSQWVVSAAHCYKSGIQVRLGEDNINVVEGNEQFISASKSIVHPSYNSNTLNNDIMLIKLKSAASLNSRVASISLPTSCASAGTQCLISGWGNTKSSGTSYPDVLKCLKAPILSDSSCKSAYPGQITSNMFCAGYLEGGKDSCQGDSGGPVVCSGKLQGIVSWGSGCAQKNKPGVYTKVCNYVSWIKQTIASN

trypsin [6] = assay: cell-based or functional assay

Binder | Ki [1] | IC50 [2] | other results
B1 | 60 nM | 92 nM | –
B2 | 231 nM | 354 nM | –
B3 | 6980 nM | 10700 nM | –
B4 | 2.8 nM | – | fold more potent towards MMP2 than MMP9 [3]: ~1000 fold; Ki (MMP9): 2680 nM; fold better binding affinity against Asn-RTD-1 19 [4]: 13 fold; fold better binding affinity against Asp-RTD-1 18 [4]: 2.3 fold; fold improvement of Ki against the linear Asn(OH)-APP-IP peptide 9 [4]: 8.2 fold
B5 | 6.5 nM | – | Ki (MMP9): 3290 nM
B6 | 36.5 nM | – | Ki (MMP9): 5590 nM
B7 | – | – | Ki (trypsin [5]): 0.18 nM; IC50 (trypsin [6]): 2.01 nM
B8 | 2180 nM | 3340 nM | –
B9 | 23 nM | 35 nM | fold improvement of inhibitory activity against APP-IP 8 [4]: 2.6 fold
B10 | 21300 nM | 32500 nM | –
B11 | 60 nM | – | –
B12 | 12000 nM | 18400 nM | –
B13 | – | > 100000 nM | –
